In the experiment the target is recombinant MHJ_0125 (polyhistidine fusion of the M42 glutamyl aminopeptidase MHJ_0125 of Mycoplasma hyopneumoniae) (Mycoplasma hyopneumoniae (strain J)). The experiment can be described thus: SEC; 10 µg purified rMHJ_0125 on Superdex 200 (3.2 x 300 mm), 20 mM Tris-HCl pH 8.0, 50 µl/min; markers blue dextran, apoferritin, myoglobin. Background: SEC sorts molecules by how far they enter the pores of the column.

In general, stoichiometry N refers to the number of molecules, sites or subunits per partner or assembly. As to “recombinant MHJ_0125 (polyhistidine fusion of the M42 glutamyl aminopeptidase MHJ_0125 of Mycoplasma hyopneumoniae) (enzyme)”, the stoichiometry N came out at 12.

The record behind these values is article PMC3718333.
